Reference: the supplement of paper PMC6755084

B1: minF1; a variant is named by its letters at N, in order (parent)
chain: GAGACCGCAACTGAAAAGTTGTTANNNNAANGNNNGGTTGAATTTCTGCACGTAGAAGCAAAAGGC
B2: minF1; a variant is named by its letters at N, in order (parent)
chain: GAGACCGCAACTGAAAAGTTGTTNNNNAANNNNNGGNTNAATTTCTGCACGTAGAAGCAAAAGGC

Variants of: B1
Test: fraction ligated after 30 min (ligated reads / total reads); higher = more ligase activity
Settings: with F1*subA RNA substrate (template-directed ligation), 42 °C
Summary of the method: (§1)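 RNAs for minimized ligase ribozyme variants were transcribed with T7 from PCR-amplified oligo-pool templates and purified on gels. Ligated and unligated species were resolved on gels, converted to cDNA with barcoded primers, and read on a MiSeq with core bases filtered at quality ≥30. Fraction ligated per variant is the ratio of ligated reads to total reads.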

For GAGACCGCAACTGAAAAGTTGTTACAGAATGGATGGGTTGAATTTCTGCACGTAGAAGCAAAAGGC [CAGAGATG A30T], which fraction ligated is on record?
Its fraction ligated is 0.0134.

With GAGACCGCAACTGAAAAGTTGTTATCGAATGGATGGGTTGAATTTCTGCACGTAGAAGCAAAAGGC [TCGAGATG A30T] as the variant, how does the fraction ligated read?
The fraction ligated was 0.205.

Which fraction ligated does the source give for GAGACCGCAACTGAAAAGTTGTTATCAGAAATGGATGGGTTTTTTCTGCACGTAGAAGCAAAAGGC [TCAGAGGA G32T G36T T38G T39G G40T A41T A42T] here?
Its fraction ligated is 0.00119.

Variants of: B2
Test: as above
Settings: with F1*subA RNA substrate (template-directed ligation), 42 °C
Summary of the method: as §1

How did the fraction ligated turn out when GAGACCGCAACTGAAAAGTTGTTTCAGAAATGGTGGGTTGATTTCTGCACGTAGAAGCAAAAGGC [TCAGATGGTGT A40G] was run?
The fraction ligated was 0.00521.

Which fraction ligated does the source give for GAGACCGCAACTGAAAAGTTGTTACAGAAATGTGGGTTGAATTTCTGCACGTAGAAGCAAAAGGC [ACAGATGTGTG] here?
Its fraction ligated is 0.00297.

For GAGACCGCAACTGAAAAGTTGTTATCAGAAAGGATGGTTGATTTCTGCACGTAGAAGCAAAAGGC [ATCAAAGGAGT A28G G35T A40G], which fraction ligated is on record?
Its fraction ligated is 0.00529.

GAGACCGCAACTGAAAAGTTGTTACGAAATGGATGGGTTGATTTCTGCACGTAGAAGCAAAAGGC [ACGATGGATGT A40G] was tested. Which fraction ligated did it give?
The fraction ligated was 0.0424.

GAGACCGCAACTGAAAAGTTGTTCAGAAATGGAGGGTTGAATTTCTGCACGTAGAAGCAAAAGGC [CAGATGGAGTG] was tested. Which fraction ligated did it give?
Its fraction ligated is 0.00344.

For GAGACCGCAACTGAAAAGTTGTTATCAGAAATGTGGTTGAATTTCTGCACGTAGAAGCAAAAGGC [ATCAAATGTTG A28G], which fraction ligated is on record?
The fraction ligated was 0.00332.

How did the fraction ligated turn out when GAGACCGCAACTGAAAAGTTGTTATCAAAAGGATGGGTTAATTTCTGCACGTAGAAGCAAAAGGC [ATCAAGGATGT] was run?
The fraction ligated was 0.00413.

With GAGACCGCAACTGAAAAGTTGTTATCAAAATGGATGGGTTATTTCTGCACGTAGAAGCAAAAGGC [ATCAATGGAGT G35T T38G A40T] as the variant, how does the fraction ligated read?
The fraction ligated was 0.00324.

With GAGACCGCAACTGAAAAGTTGTATCAGAAAGATGGGTTGAATTTCTGCACGTAGAAGCAAAAGGC [TCAGAGATGTG T23A] as the variant, how does the fraction ligated read?
Its fraction ligated is 0.00422.

Which fraction ligated does the source give for GAGACCGCAACTGAAAAGTTGTTCAGAAATGGTGGGTTGAATTTCTGCACGTAGAAGCAAAAGGC [CAGATGGTGTG] here?
Its fraction ligated is 0.00442.

For GAGACCGCAACTGAAAAGTTGTTAAGAAATGGATGGGTTGATTTCTGCACGTAGAAGCAAAAGGC [AAGATGGATGT A40G], which fraction ligated is on record?
Its fraction ligated is 0.00604.

GAGACCGCAACTGAAAAGTTGTTATCAGAAAGGAGGGTTAATTTCTGCACGTAGAAGCAAAAGGC [ATCAAAGGAGT A28G] was tested. Which fraction ligated did it give?
Its fraction ligated is 0.00277.

For GAGACCGCAACTGAAAAGTTGTTATCGAAAGATGGGTTGAATTTCTGCACGTAGAAGCAAAAGGC [ATCGAGATGTG], which fraction ligated is on record?
The fraction ligated was 0.00673.

How did the fraction ligated turn out when GAGACCGCAACTGAAAAGTTGTATCAAAATGGATGGGTTGATTTCTGCACGTAGAAGCAAAAGGC [TCAATGGATGT T23A A40G] was run?
The fraction ligated was 0.00963.

GAGACCGCAACTGAAAAGTTGTTACAGAATGGATGGTTGAATTTCTGCACGTAGAAGCAAAAGGC [ACAGTGGATTG] was tested. Which fraction ligated did it give?
The fraction ligated was 0.013.

For GAGACCGCAACTGAAAAGTTGTTATAAAATGGTGGGTTGAATTTCTGCACGTAGAAGCAAAAGGC [ATAATGGTGTG], which fraction ligated is on record?
The fraction ligated was 0.00284.

How did the fraction ligated turn out when GAGACCGCAACTGAAAAGTTGTTATCAGAAGGATGGTTGAATTTCTGCACGTAGAAGCAAAAGGC [ATCAAGGATTG A28G] was run?
The fraction ligated was 0.00187.

GAGACCGCAACTGAAAAGTTGTTATCAGAATGGTGGGTTAATTTCTGCACGTAGAAGCAAAAGGC [ATCAATGGTGT A28G] was tested. Which fraction ligated did it give?
The fraction ligated was 0.00146.

For GAGACCGCAACTGAAAAGTTGTTTCAGAAATGATGGGTTAATTTCTGCACGTAGAAGCAAAAGGC [TCAGATGATGT], which fraction ligated is on record?
Its fraction ligated is 0.00279.

With GAGACCGCAACTGAAAAGTTGTTTCAGAAAGGATGGGTTAATTTCTGCACGTAGAAGCAAAAGGC [TCAGAGGATGT] as the variant, how does the fraction ligated read?
Its fraction ligated is 0.00375.

GAGACCGCAACTGAAAAGTTGTTATCAAAATGATGGTTGAATTTCTGCACGTAGAAGCAAAAGGC [ATCAATGATTG] was tested. Which fraction ligated did it give?
The fraction ligated was 0.00237.

For GAGACCGCAACTGAAAAGTTGTTATCAGATGGATGGGTTGATTTCTGCACGTAGAAGCAAAAGGC [ATCATGGATGT A28G A40G], which fraction ligated is on record?
The fraction ligated was 0.0551.

GAGACCGCAACTGAAAAGTTGTTATCAGAATGGATGGGTTATTTCTGCACGTAGAAGCAAAAGGC [ATCAATGGAGT A28G G35T T38G A40T] was tested. Which fraction ligated did it give?
Its fraction ligated is 0.00109.

How did the fraction ligated turn out when GAGACCGCAACTGAAAAGTTGTTATCAGAAAGATGGGTTAATTTCTGCACGTAGAAGCAAAAGGC [ATCAAAGATGT A28G] was run?
The fraction ligated was 0.00546.

With GAGACCGCAACTGAAAAGTTGTTATCGAAATGGAGGGTTGATTTCTGCACGTAGAAGCAAAAGGC [ATCGATGGAGT A40G] as the variant, how does the fraction ligated read?
The fraction ligated was 0.00946.

For GAGACCGCAACTGAAAAGTTGTTCAGAAAGGATGGGTTGAATTTCTGCACGTAGAAGCAAAAGGC [CAGAGGATGTG], which fraction ligated is on record?
Its fraction ligated is 0.00332.

Which fraction ligated does the source give for GAGACCGCAACTGAAAAGTTGTTTCAAAATGATGGGTTGAATTTCTGCACGTAGAAGCAAAAGGC [TCAATGATGTG] here?
Its fraction ligated is 0.00347.

GAGACCGCAACTGAAAAGTTGTTTAGAAATGGATGGTTGAATTTCTGCACGTAGAAGCAAAAGGC [TAGATGGATTG] was tested. Which fraction ligated did it give?
The fraction ligated was 0.00552.

Which fraction ligated does the source give for GAGACCGCAACTGAAAAGTTGTTTAGAAATGGATGGGTTAATTTCTGCACGTAGAAGCAAAAGGC [TAGATGGATGT] here?
Its fraction ligated is 0.00222.

Which fraction ligated does the source give for GAGACCGCAACTGAAAAGTTGTTATCGAATGATGGGTTGAATTTCTGCACGTAGAAGCAAAAGGC [ATCGTGATGTG] here?
Its fraction ligated is 0.00711.

Which fraction ligated does the source give for GAGACCGCAACTGAAAAGTTGTTACAGAAAGGATGGGTTGATTTCTGCACGTAGAAGCAAAAGGC [ACAGAGGATGT A40G] here?
Its fraction ligated is 0.00295.

With GAGACCGCAACTGAAAAGTTGTATCAGATGGATGGGTTGAATTTCTGCACGTAGAAGCAAAAGGC [TCAGGGATGTG T23A A29T] as the variant, how does the fraction ligated read?
The fraction ligated was 0.0174.

With GAGACCGCAACTGAAAAGTTGTTTCAGAAATGGGGGTTGAATTTCTGCACGTAGAAGCAAAAGGC [TCAGATGGGTG] as the variant, how does the fraction ligated read?
Its fraction ligated is 0.00281.

With GAGACCGCAACTGAAAAGTTGTTATCGAAATGGATGGTTAATTTCTGCACGTAGAAGCAAAAGGC [ATCGATGGAGT G35T] as the variant, how does the fraction ligated read?
The fraction ligated was 0.0345.

For GAGACCGCAACTGAAAAGTTGTATCAGAAATGGAGGTTGAATTTCTGCACGTAGAAGCAAAAGGC [TCAGATGGATG T23A], which fraction ligated is on record?
The fraction ligated was 0.00344.

With GAGACCGCAACTGAAAAGTTGTTATAGAAATGGAGGGTTAATTTCTGCACGTAGAAGCAAAAGGC [ATAGATGGAGT] as the variant, how does the fraction ligated read?
The fraction ligated was 0.00474.

For GAGACCGCAACTGAAAAGTTGTTTCAGAAATGTGGGTTGAATTTCTGCACGTAGAAGCAAAAGGC [TCAGATGTGTG], which fraction ligated is on record?
Its fraction ligated is 0.00186.

Which fraction ligated does the source give for GAGACCGCAACTGAAAAGTTGTTATCGAAATGTGGGTTGAATTTCTGCACGTAGAAGCAAAAGGC [ATCGATGTGTG] here?
Its fraction ligated is 0.00321.
